Data published in article PMC6048173, “Structural Insight into Substrate Specificity of 3-Hydroxypropionyl-Coenzyme A Dehydratase from Metallosphaera sedula” (Scientific Reports, 2018).

Assays:
[1] = target: 3-Hydroxypropionyl-CoA dehydratase from Metallosphaera sedula (Metallosphaera sedula); assay: crystal structure; Ms3HPCD in complex with CoA, 1.8 Å, space group P21, six monomers in the asymmetric unit; crystals from 10% PEG 8000, 0.1 M sodium-potassium phosphate pH 6.2, 0.2 M NaCl, 10 mM EDTA, 20 °C
[2] = target: 3-Hydroxypropionyl-CoA dehydratase from Metallosphaera sedula (Metallosphaera sedula); assay: SEC; analytical, Superdex increase 200 10/300 GL, 40 mM Tris-HCl pH 8.0, 150 mM NaCl; 1 mL of 1 mg/mL protein; calibrated with ferritin, conalbumin, carbonic anhydrase, ribonuclease A
[3] = target: T1, 3-Hydroxypropionyl-CoA dehydratase (Ms3HPCD; 3HPCD; 3-HPCD) (Metallosphaera sedula, UniProt A4YI89); assay: X-ray crystal structure, […] Å; settings: co-purified, CoA not added during expression or purification; substrate binding site between two monomers; crystals at pH 6.2, 20 °C
T1 construct: gene Msed_2001; Met1-Lys256, C-terminal 6xHis tag (pET30a), expressed in E. coli BL21(DE3)-T1R; hexamer (dimer of trimers)
T1 sequence (A4YI89 whole entry): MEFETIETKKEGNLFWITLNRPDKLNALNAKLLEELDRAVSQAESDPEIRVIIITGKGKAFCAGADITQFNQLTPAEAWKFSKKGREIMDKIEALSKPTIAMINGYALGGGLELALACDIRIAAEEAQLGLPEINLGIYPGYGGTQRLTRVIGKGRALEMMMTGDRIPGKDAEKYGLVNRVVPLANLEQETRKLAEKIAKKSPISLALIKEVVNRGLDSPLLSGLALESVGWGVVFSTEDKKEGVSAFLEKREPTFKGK

For “3-Hydroxypropionyl-CoA dehydratase from Metallosphaera sedula (enzyme)”, which stoichiometry N [1] is on record?
The stoichiometry N was 6.

What about the stoichiometry N [2] of the same molecule?
The stoichiometry N was 6.

Which “X-ray crystal structure, 1.8 Å” value [3] does the source give for `CC(C)(COP(=O)(O)OP(=O)(O)OC[C@H]1O[C@@H](n2cnc3c(N)ncnc32)[C@H](O)[C@@H]1OP(=O)(O)O)[C@@H](O)C(=O)NCCC(=O)NCCS` [CoA] here?
Its value is “In our current structure, the CoA molecule is tightly bound at the substrate binding site”.
